Experimental data taken from patent US20240425587A1 (Alector, published 2024).

Tests used:
[1] = target: T1, PILRA Fc (soluble human PILRA) (human, UniProt Q9UKJ1 20-197, limits assumed); test: flow cytometry; blocking of PILRA Fc binding to human CD3+ T cells (Donor 1019)
T1 construct: also called soluble PILRA; not shown: Fc part, detected with anti-human IgG
Procedure: The ability of conditioned media samples containing antibodies to inhibit the binding of PILRA Fc to human CD3+ T cells was assessed. Briefly, conditioned media samples containing antibodies were incubated with 1.25 ug/ml PILRA Fc for 30 min at 4° C. and then added to human T cells. After 30 minutes incubation at 4° C., cells were washed, and bound PILRA Fc was detected with anti-human IgG Alexa 647. Cells were analyzed by flow cytometry on FACS Canto II, and for all cell lines, the amount of PILRA Fc binding (MIFI) and the percentage of PILRA Fc binding in the presence of conditioned media relative to PILRA Fc binding alone was calculated. Several antibodies inhibited binding of PILRA Fc to human T cells, and a few antibodies enhanced PILRA-Fc binding to T cells. Antibodies that show enhancement in this assay may block cis inhibition to promote trans interactions or may allosterically activate to enhance trans interactions without blocking cis.

[2] = target: cynomolgus PILRA, ectopically expressed on 293 cells (cynomolgus monkey); test: flow cytometry, 293 cells expressing target
Procedure: (§1) Briefly, conditioned media containing antibodies were incubated with 293 cells for 30 min at 4° C., washed twice, and then detected with anti-mouse IgG Alexa 647.

[3] = target: T2, human PILRB, ectopically expressed on 293 cells (human, UniProt Q9UKJ0 20-227); test: flow cytometry, 293 cells expressing target
T2 construct: also called hB
Procedure: as §1

[4] = target: T3, murine PILRA, ectopically expressed on 293 cells (murine, UniProt Q2YFS3 32-302); test: flow cytometry, 293 cells expressing target
T3 construct: also called mA
Procedure: as §1

[5] = target: T4, murine PILRB, ectopically expressed on 293 cells (murine, UniProt Q2YFS2 29-224); test: flow cytometry, 293 cells expressing target
T4 construct: whole, on cells; also called mB
Procedure: as §1

[6] = target: T5, human PILRA, G78 variant, ectopically expressed on 293 cells (human, UniProt Q9UKJ1 20-303); test: flow cytometry, 293 cells expressing target
T5 construct: the cells are labelled G78; also called hA G78 OE; hA
Procedure: as §1

[7] = target: T6, human PILRA, c-term His-Avi tag (human, UniProt Q9UKJ1 20-197, limits assumed); test: SPR (Biacore), antibody captured, PILRA as analyte
T6 construct: not shown: C-terminal His-Avi tag
Procedure: Experiments were performed to determine the kinetics of anti-PILRA antibody binding to human […]. The assay is depicted in FIG. 6. A rabbit anti-PILRA was used as a positive control, and H1 LALAPS was used as a negative control. Human PILRA (human PILRA, c-term His-Avi tag, 0.68 mg/mi) was used as the antigen. The running buffer was HBSTE/0.5% BSA, pH 7.4, and the regeneration solution was 10 mM glycine-HCl (pH 2.1). In the assay, antibodies were captured at 10 μg/ml by immobilized anti-huFc or anti-msFc on a Biacore CM5 chip, and human PILRA flowed at 33, 100, and 300 nM. The surface was regenerated after each analyte, and all curves were double-referenced with buffer injections.

[8] = target: T5, human PILRA, G78 variant, ectopically …; test: flow cytometry; blocking of NPDC1-hIgG1 binding to 293 cells expressing human PILRA G78

T2 sequence (Q9UKJ0 20-227): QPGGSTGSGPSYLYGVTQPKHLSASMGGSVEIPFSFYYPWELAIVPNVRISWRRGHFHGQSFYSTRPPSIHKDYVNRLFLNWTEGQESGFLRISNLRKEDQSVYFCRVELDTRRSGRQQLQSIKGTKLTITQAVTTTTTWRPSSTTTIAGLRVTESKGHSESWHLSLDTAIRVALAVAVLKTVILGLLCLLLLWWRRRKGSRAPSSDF
T6 sequence (Q9UKJ1 20-197 limits assumed): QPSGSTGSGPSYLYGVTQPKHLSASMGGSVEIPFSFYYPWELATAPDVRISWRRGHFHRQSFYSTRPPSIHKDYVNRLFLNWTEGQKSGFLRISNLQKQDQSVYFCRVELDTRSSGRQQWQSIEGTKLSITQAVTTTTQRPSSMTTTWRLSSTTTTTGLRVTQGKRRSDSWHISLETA
T1 sequence (Q9UKJ1 20-197 limits assumed): as above
Chain of cynomolgus PILRA, ectopically expressed on 293 cells (cynomolgus monkey) (chain, as listed by the source): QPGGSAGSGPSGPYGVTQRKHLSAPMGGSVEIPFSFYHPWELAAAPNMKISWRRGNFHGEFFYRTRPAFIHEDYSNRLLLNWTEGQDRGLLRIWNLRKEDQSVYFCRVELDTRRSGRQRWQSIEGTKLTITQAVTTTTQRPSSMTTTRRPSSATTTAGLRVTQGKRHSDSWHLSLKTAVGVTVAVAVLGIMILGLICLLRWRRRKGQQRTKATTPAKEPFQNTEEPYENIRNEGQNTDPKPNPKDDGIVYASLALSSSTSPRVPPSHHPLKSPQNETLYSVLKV
T3 sequence (Q2YFS3 32-302): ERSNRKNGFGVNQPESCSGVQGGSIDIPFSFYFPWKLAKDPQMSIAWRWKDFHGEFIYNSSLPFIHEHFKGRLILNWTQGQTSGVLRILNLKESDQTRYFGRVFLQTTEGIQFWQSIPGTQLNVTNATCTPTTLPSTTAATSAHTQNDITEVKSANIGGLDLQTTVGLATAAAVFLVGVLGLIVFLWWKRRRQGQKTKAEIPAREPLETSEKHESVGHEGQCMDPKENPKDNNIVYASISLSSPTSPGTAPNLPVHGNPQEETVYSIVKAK
T4 sequence (Q2YFS2 29-224): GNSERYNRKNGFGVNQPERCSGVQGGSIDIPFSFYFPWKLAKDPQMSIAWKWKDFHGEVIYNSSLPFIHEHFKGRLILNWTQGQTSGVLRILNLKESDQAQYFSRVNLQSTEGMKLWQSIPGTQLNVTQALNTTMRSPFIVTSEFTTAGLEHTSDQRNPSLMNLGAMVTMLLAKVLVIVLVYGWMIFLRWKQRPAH
T5 sequence (Q9UKJ1 other isoform, or with tags, fused parts or gaps mutant): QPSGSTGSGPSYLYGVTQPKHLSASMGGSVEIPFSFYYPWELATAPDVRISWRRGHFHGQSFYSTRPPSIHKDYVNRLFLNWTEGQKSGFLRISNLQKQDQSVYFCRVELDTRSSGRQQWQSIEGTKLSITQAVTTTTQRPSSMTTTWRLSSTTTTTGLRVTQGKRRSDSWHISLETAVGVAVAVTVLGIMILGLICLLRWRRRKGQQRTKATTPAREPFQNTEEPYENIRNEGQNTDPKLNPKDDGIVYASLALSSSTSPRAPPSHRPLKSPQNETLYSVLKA

B1: D3 (antibody, V domains shown)
VH: QVQLQQPGADLVKPGASVKVSCKTSGYSFTSYWIHWVKQRPGQGLEWIGRVHPSDSDTDYSQKFKGKATLTVDDSSSTVYMQLTNLTSEDSAVYYCAIEWGYLFDYWGQGTTLSVSS
VL: DIVLTQSPISLAVSLGQRATISCWASQSVSTSSYSYVHWYQQKPGQPPKLLIKYASNLDSGVPARFSGSGSGTDFTLNIHPVDEEDTATYYCHHNWEIPYTFGGGTKLEIK
notes: second hybridoma campaign
Q: What does the source list for B1?
A: IC50 [1]: 2.9 µg/mL; binding result [2]: no binding; binding result [3]: no binding; binding result [4]: no binding; binding result [5]: no binding; EC50 [6]: 0.2 µg/mL

B2: D2 (antibody, V domains shown)
VH: QIQLGQSGPELKRPRETVKISCKASGYTFTTYGMSWVKQAPGKGLRWMGWINTHSGVPAYADDFKGRFAFSLETSANTAFLQINNLENEDTATYFCAKDYNWGMDYWGQGTSVIVSS
VL: QLVLTQSSSASFSLGASAKLTCTLSSQHSTYTIEWYQQQPLKPPKYVMEVKKDGSHSTGDGIPDRFSGSSSGADRYLSISNIQPEDEAIYICGVGDSIKEQFVYVFGGGTKVTVL
notes: second hybridoma campaign
Q: How did the IC50 [1] turn out when B2 was run?
A: 3.3 µg/mL

Q: And the Kd [7]?
A: < 1.3 nM

Q: What about the koff [7] of the same binder?
A: < 0.0001 s⁻¹

Q: What about the kon [7] of the same binder?
A: 75000 M⁻¹ s⁻¹

Q: Does B2 bind [2]?
A: no binding

Q: Does B2 bind [3]?
A: no binding

Q: Does B2 bind [4]?
A: no binding

Q: Does B2 bind [5]?
A: no binding

Q: And the EC50 [6]?
A: 3.4 µg/mL

B3: A10 (antibody, V domains shown)
VH: QVQLVQSGAEVKKPGASVKVSCKASGYTFTDYYIHWVRQAPGQGLEWMGWMNPNSGNTGYAQKFQGRVTMTRDTSTSTVYMELSSLRSEDTAVYYCAREGSSGWYVDYWGQGTLVTVSS
VL: DIQMTQSPSSLSASVGDRVTITCQASQDISQFLNWYQQKPGKAPKLLIYDAYSLQSGVPSRFSGSGSGTDFTLTISSLQPEDFATYYCQQANSFPLTFGQGTKVEIK
notes: phage campaign
Q: Which IC50 [8] does the source give for B3 here?
A: 0.48 µg/mL

Q: What about the Kd [7] of the same binder?
A: 42.9 nM

Q: And the koff [7]?
A: 0.0054 s⁻¹

Q: What about the kon [7] of the same binder?
A: 130000 M⁻¹ s⁻¹

Q: What about the EC50 [2] of the same binder?
A: 17.3 µg/mL

Q: Does B3 bind [3]?
A: no binding

Q: Does B3 bind [4]?
A: no binding

Q: Does B3 bind [5]?
A: no binding

Q: What about the EC50 [6] of the same binder?
A: 1.1 µg/mL

B4: E20 (antibody, V domains shown)
VH: QIQLVQSGPELKKPGETVKISCKASGYTFTTYGMSWVKQAPGKGLKWMGWINTYSGVPTYADDFKGRFAFSLETSASTAYLQINNLKNEDTATYFCARYDGYLDYWGQGTTLTVSS
VL: DIVLTQSPASLAVSLGQRATISCKASQSVDYDGDSYMNWYQQKPGQPPKLLIYAASNLESGIPARFSGSGSGTDFTLNIHPVEEEDAATYYCQQSNEDLTFGSGTKLEIK
notes: B-cell cloning campaign (mice)
Q: B4 was tested. Which IC50 [1] did it give?
A: 5.1 µg/mL

Q: Does B4 bind [2]?
A: no binding

Q: Does B4 bind [3]?
A: no binding

Q: Does B4 bind [4]?
A: no binding

Q: Does B4 bind [5]?
A: no binding

Q: What about the EC50 [6] of the same binder?
A: 33.5 µg/mL

B5: D4 (antibody, V domains shown)
VH: QVQLQQSGADLARPGASVKLSCKASGYTFTSYGIAWMKQRTGQGLEWIGEIYPRSGNPYYNDRFKGKATLTADRSSNTTYMELRSLTSEDSAVYFCARWVGGIIDYWGQGTSVTVSS
VL: DIVMTQSQKFMSTSIGDRVSVTCKASQNVGFNVAWYQQKPGQSPKPLIYSASYRYSGVPDRFTGSESGTEFTLIISNVQSEDLAEYFCQQYDSYPFTFGSGTNLEIK
notes: second hybridoma campaign
Q: B5 was tested. Which IC50 [1] did it give?
A: 3.77 µg/mL

Q: Does B5 bind [2]?
A: no binding

Q: Does B5 bind [3]?
A: no binding

Q: Does B5 bind [4]?
A: no binding

Q: Does B5 bind [5]?
A: no binding

Q: What about the EC50 [6] of the same binder?
A: 0.4 µg/mL

B6: E21 (antibody, V domains shown)
VH: QVQLVQSGAEVKKPGSSVKVSCKASGYTFSNYDINWVRQAPGQGLEWMGGIIPIFGTANYALKFQGRVTITADESTSTAYMELSSLRSEDTAVYYCARGGPWLYFDYWGQGTLVTVSS
VL: DIQMTQSPSSLSASVGDRVTITCRASQSISTYLNWYQQKPGKAPKLLIYAASTLQSGVPSRFSGSGSGTDFTLTISSLQPEDFATYYCQQSYSSPLTFGQGTKLEIK
notes: phage campaign
Q: Which results are given for B6?
A: IC50 [8]: 0.6 µg/mL; Kd [7]: 51.3 nM; koff [7]: 0.0061 s⁻¹; kon [7]: 120000 M⁻¹ s⁻¹; binding result [2]: no binding; EC50 [3]: 3.4 µg/mL; binding result [4]: no binding; binding result [5]: no binding; EC50 [6]: 0.7 µg/mL

B7: D7 (antibody, V domains shown)
VH: QVQLKESGPGLVAPSQSLSITCTVSGFSLTSYAISWVRQPPGKGLEWLGIIWTGGDTNYNSGLKSRLSITKDNSKSQVFLKMNSLQTDDTSRYYCARNSLFYGITPYYFDYWGQGTTLTVSS
VL: DIVLTQSPATLSVTPGDSVSLSCRASQSIRNDLHWYQQKSHESPRLLIKYASQSISGIPSRFSGSGSGTDFTLTINVLETEDFGMYFCQQSNGWPLTFGAGTKLELK
notes: second hybridoma campaign
Q: B7 was tested. Which IC50 [1] did it give?
A: 5.75 µg/mL

Q: What about the EC50 [2] of the same binder?
A: 1 µg/mL

Q: And the EC50 [3]?
A: 21.2 µg/mL

Q: Does B7 bind [4]?
A: no binding

Q: Does B7 bind [5]?
A: no binding

Q: And the EC50 [6]?
A: 0.3 µg/mL

B8: A16 (antibody, human IgG1, kappa, L234A L235A, V domains shown)
VH: QVQLVQSGAEVKKPGSSVKVSCKASGYNFLNYDVNWVRQAPGQGLEWMGGIIPIFGTANYAQKFQGRVTITADESTSTAYMELSSLRSEDTAVYYCATGVGAGWFDPWGQGTLVTVSS
VL: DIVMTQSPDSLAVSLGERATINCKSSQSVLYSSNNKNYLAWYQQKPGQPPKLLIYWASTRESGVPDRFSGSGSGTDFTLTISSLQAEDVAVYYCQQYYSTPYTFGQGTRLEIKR
Q: B8 was tested. Which IC50 [8] did it give?
A: 0.38 µg/mL

Q: And the Kd [7]?
A: 47 nM

Q: What about the koff [7] of the same binder?
A: 0.0042 s⁻¹

Q: What about the kon [7] of the same binder?
A: 90000 M⁻¹ s⁻¹

Q: And the EC50 [2]?
A: 0.2 µg/mL

Q: Does B8 bind [3]?
A: no binding

Q: Does B8 bind [4]?
A: no binding

Q: Does B8 bind [5]?
A: no binding

Q: What about the EC50 [6] of the same binder?
A: 0.2 µg/mL

B9: D1 (antibody, V domains shown)
VH: QVQLQQSGVELARPGASVKLSCKASGYNFTSYGINWVKQRTGQGLEWIGKSYPTSGNNYYNEKFKGKATVTADKSSSTAYMELRSLTSEDSAVYFCGVWYGSLFAHWGQGTLVTVTA
VL: DIVMTQSQKFMSTSVGDRVRVTCKASQNVGFNVAWYQQKPGQSPKVLIYSASYRYSGVPDRFTGSGSGTDFTLTITNVQSEDLAEYFCHQYNNFPFTFGSGTKLEIK
notes: second hybridoma campaign
Q: B9 was tested. Which IC50 [1] did it give?
A: 1.6 µg/mL

Q: Does B9 bind [2]?
A: no binding

Q: Does B9 bind [3]?
A: no binding

Q: Does B9 bind [4]?
A: no binding

Q: Does B9 bind [5]?
A: no binding

Q: And the EC50 [6]?
A: 0.3 µg/mL

B10: B1 (antibody, V domains shown)
VH: DVKLVESGGGLVKLGGSLKLSCAASGFTFSSYYMSWVRQTPEKRLEWVAAINSNGDRSYYPDTVKGRFTISRDNAKNTLYLQMSSLKSEDTAFYYCASHGNYYGSPWFAYWGQGTLVTVSA
VL: ETTVTQSPASLSVATGEKVTIRCKTSTDIDDDMNWYQQKPGEPPKLLISEGNTLRPGVPSRFSSSGYGTDFVFTIENTLSEDVADYYCLQNDHMPLTFGGGTKLEIK
notes: as for B4
Q: For B10, which IC50 [1] is on record?
A: 2.2 µg/mL

Q: And the EC50 [2]?
A: 2 µg/mL

Q: Does B10 bind [3]?
A: no binding

Q: Does B10 bind [4]?
A: no binding

Q: Does B10 bind [5]?
A: no binding

Q: And the EC50 [6]?
A: 0.96 µg/mL

B11: D6 (antibody, V domains shown)
VH: EVQLQQSGPELVKPGASVKMSCKASGYTFTDYYMDWVKQSHGESFEWIGRVNPYTGDSSYNQKFKGKATLTVDKSSNTAYLEFNSLTSEGSAVYYCARSDGYHYKYAMDYWGQGTSVTVSS
VL: DVVMTQTPLSLPVSLGDQASISCRSSQSLVHSTGNTYLHWYLQKPGQSPNLLIYKISNRFSGVPDRFSGSGSGTDFTLKISRVEAEDLGVYFCSQSTHVPYTFGGGTKLEIK
notes: second hybridoma campaign; same VH/VL as D8
Q: Which results are given for B11?
A: IC50 [1]: 3.13 µg/mL; EC50 [2]: 0.05 µg/mL; EC50 [3]: 0.47 µg/mL; binding result [4]: no binding; binding result [5]: no binding; EC50 [6]: 0.12 µg/mL

B12: D8 (antibody, V domains shown)
VH: B11 VH
VL: B11 VL
notes: second hybridoma campaign; same VH/VL as D6
Q: What does the source list for B12?
A: IC50 [1]: 2 µg/mL; EC50 [2]: 0.1 µg/mL; EC50 [3]: 0.35 µg/mL; binding result [4]: no binding; binding result [5]: no binding; EC50 [6]: 0.1 µg/mL

B13: A9 (antibody, V domains shown)
VH: QVQLVQSGAEVKKPGSSVKVSCKASGYTFTDYAISWVRQAPGQGLEWMGGITPVFGTPSYAQKFQGRVTITADESTSTAYMELSSLRSEDTAVYYCARGWELRRDPFDYWGQGTLVTVSS
VL: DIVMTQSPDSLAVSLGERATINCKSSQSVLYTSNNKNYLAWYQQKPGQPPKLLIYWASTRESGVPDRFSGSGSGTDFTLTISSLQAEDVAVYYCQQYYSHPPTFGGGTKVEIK
notes: phage campaign
Q: For B13, which IC50 [8] is on record?
A: 0.6 µg/mL

Q: And the Kd [7]?
A: 150 nM

Q: And the koff [7]?
A: 0.011 s⁻¹

Q: And the kon [7]?
A: 70000 M⁻¹ s⁻¹

Q: And the EC50 [2]?
A: 14.6 µg/mL

Q: Does B13 bind [3]?
A: no binding

Q: Does B13 bind [4]?
A: no binding

Q: Does B13 bind [5]?
A: no binding

Q: And the EC50 [6]?
A: 0.8 µg/mL
